Measured values as given in US9359446B2, “Antibody to a carbonic anhydrase” (Hemholtz Zentrum Munchen—Deutches Forschungszentrum Fur …, priority 2010, dated 2016).

Tests used:
[1] = test system: peripheral blood mononuclear cells (PBMC), melanoma cell lines; assay: Flow cytometry binding to peripheral blood mononuclear cells and melanoma cell lines; design: species or system human; conditions: hybridoma supernatant diluted 1:5
Description: FIG. 4A. Permanent human cancer cell lines were incubated with EXO 6A10 (hybridoma supernatant diluted 1:5 in 2% (v/v) FCS (i.e., fetal calf serum) in PBS) for 15 min on ice, washed three times in PBS/2% (v/v) FCS and then stained with a specific secondary antibody (goat-anti-rat IgG/Cy5) for another 15 min on ice. Binding of 6A10 was then measured by flow cytometry in a Becton Dickinson FACS Calibur device and FlowJo software (Treestar Inc.). An antibody of the identical isotype with an irrelevant specificity (glutathione-S-transferase) was used as control. (grey are=isotype control; black line=EXO 6A10). No binding to peripheral blood mononuclear cells (PBMC) and to two melanoma cell lines (not shown) was detectable. […] Exosomes were isolated from malignant ascites by differential centrifugation (500×g; 10.000×g; 70.000×g) and resuspended in PBS. The protein concentration was measured in a standard Bradford assay. 2 μg protein were pipetted onto a nitrocellulose membrane. Membranes were incubated with the different primary antibodies. After washing, membranes were incubated with a specific secondary antibodiy (anti-rat IgG/peroxidase). Ganglioside GM1 was detected with cholera toxine subunit B/peroxidase. Membranes were developed with the ECL system.

CA-II = CA-II (Homo sapiens, UniProt P00918); assay: EXO 6A10 inhibition of CA II; type: biochemical
A549 lung cancer cells = assay: Inhibition of metabolic activity and growth in 3-dimensional A549 tumour spheroids (MTT-assay, pictures); type: cell-based, human
Description: Metabolic acitivity of the spheroid was measured two days later by means of a MTT-assay and reading of the extinction at 595 nm (Cory et al. 1991). All data are represented as mean±standard error. Comparisons between non-treated and treated spheroids were performed using t-tests.
A549 lung cancer cells were plated onto a cushion consisting of 1% (v/v) agarose in PBS on a 96-well cell culture plate. […] Instead cells spontaneousely form 3-dimensional structures termed tumour spheroids.
FIG. 7, Upper: Some of the spheroids were cultivated in the presence of EXO 6A10 (final concentration 10 μg/ml) whereas others were cultivated with acetazolamide (AAZ, final concentration 100 μM). Control spheroids were cultivated without any additional treatment (Unbeh.). The metabolic acitivity of the spheroid was measured two days later by means of a MTT-assay as described and reading of the extinction at 595 nm (Cory et al. 1991). For each group, 10 spheroids were included, the mean value, the standard deviation were calculated. All data are represented as mean±standard error. Comparisons between non-treated and treated spheroids were performed using t-tests, calculated using Prism4 (GraphPad Software, La Jolla).
FIG. 7, Lower: A549 spheroids were cultivated for two days with EXO 6A10 or left untreated.

CA-XII [2] = target: T1, CA-XII (Homo sapiens, UniProt O43570); assay: CA-XII inhibition by EXO 6A10 and azetazolamide; type: biochemical; conditions: compared to sulfonamid azedazolamide
[3] = test system: non-transfected L929-cells; assay: Flow cytometry binding to non-transfected L929 cells (control); design: species or system murine
Description: (§1) Murine L929 cells were transfected with an expression plasmid encoding human CA-XII. […] As a control, binding of EXO 6A10 to non-transfected L929-cells was tested (FIG. 10, grey area, L929). […] the binding of membrane localized overexpressed human CA-XII.

CA-XII [4] = target: T1, CA-XII; assay: Flow cytometry binding to murine L929 cells transfected with human CA-XII; design: expressed in transfected cells; host or cells: murine L929 cells
Description: as §1

T1 sequence (O43570 25-354): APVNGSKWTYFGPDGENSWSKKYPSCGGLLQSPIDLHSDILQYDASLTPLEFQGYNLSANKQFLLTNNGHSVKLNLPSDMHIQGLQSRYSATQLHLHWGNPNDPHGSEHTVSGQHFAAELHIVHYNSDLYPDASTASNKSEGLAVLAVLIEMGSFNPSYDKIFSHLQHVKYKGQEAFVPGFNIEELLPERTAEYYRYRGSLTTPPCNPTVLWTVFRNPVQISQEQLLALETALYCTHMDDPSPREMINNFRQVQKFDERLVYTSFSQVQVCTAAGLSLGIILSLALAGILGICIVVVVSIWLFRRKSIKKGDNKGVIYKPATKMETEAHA

B1: EXO 6A10: rat monoclonal antibody raised to human CA-XII; CDRs SEQ ID NOs 1 to 6, VH SEQ ID NO. 7, VL SEQ ID NO. 8 (protein)
light: MARVFQQDDIVMTQTPATLSVTPGESVSLSCRASQGISTSIHWYQQKSNESPRLLIKFASQSISGIPSRFSGSGSGTDFTLSINRVESEDFSVYFCQQTYSLPYTFGAGTKLELKRADGCTNCIHLSRRSPTIFSAAMENRCSSFILSRFSGCILKLILRTMLTTSSGTVVGG
VH: EVKLEESGPGLVQPSETLSLTCTVSGFSLTTYSVSWVRQPSGKGPEWMGRMWYDGDTVYNSALKSRLSISRDTSKNQVFLKMNSLETDETGTYYCTRDFGYFDGSSPFDYWGQGVMVTVSSAETTAPSVYPLAPGTALKSNSMVTLGCLVKILLKNSSHPEDLAAALPIVSRITPDGYGVQAQVLKQLILFTMRKKQ
[1]
  binding to PBMC and two melanoma cell lines: No binding
CA-II
  inhibition of CA-II: does not significantly inhibit
A549 lung cancer cells; A549 spheroids, 10 μg/ml, two days
  metabolic activity of spheroids (MTT-assay, extinction at 595 nm): inhibition of metabolic activity
A549 lung cancer cells; cultivated for two days, versus untreated spheroids
  size and density of A549 spheroids: much smaller and much more dense
A549 lung cancer cells; hypotoxic culture conditions
  growth of tumour cell line A549: inhibits the growth
CA-XII [2]
  inhibition of CA-XII enzyme activity relative to azedazolamide: 40 times
[3]
  binding to non-transfected L929 cells: not to non-transfected cells
CA-XII [4]
  binding to L929 cells transfected with human CA-XII: binds to transfected
